# According to article PMC8298264, “Function of cofactor Akirin2 in the regulation of gene expression in model human neutrophil-like HL60 cells” (Bioscience Reports, 2021):
# System: human HL60 cells
# Test: SWATH-MS proteomics, differential protein representation, akirin2 KO vs WT HL60 cells
# Assay type: cell-based
# Conditions: akirin2 KO vs WT HL60 cells; sheet "Under-represented in KO"
# Outline: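 WT and akirin2 KO HL60 lysates (150 µg, n=3 biological replicates) were FASP trypsin-digested and desalted. A spectral library was built by IDA from 3 µg digests, then 5 µg per sample went to variable-window SWATH DIA over a 120-min 5–30% acetonitrile gradient. Identifications were accepted at 1% global FDR, with total-area-sum normalization.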
Molecule,Fold Change,Log (Fold Change)
"sp¦Q9UIG0¦BAZ1B_HUMAN (protein, UniProt Q9UIG0 1-1483, looked up) Tyrosine-protein kinase BAZ1B: MAPLLGRKPFPLVKPLPGEEPLFTIPHTQEAFRTREEYEARLERYSERIWTCKSTGSSQLTHKEAWEEEQEVAELLKEEFPAWYEKLVLEMVHHNTASLEKLVDTAWLEIMTKYAVGEECDFEVGKEKMLKVKIVKIHPLEKVDEEATEKKSDGACDSPSSDKENSSQIAQDHQKKETVVKEDEGRRESINDRARRSPRKLPTSLKKGERKWAPPKFLPHKYDVKLQNEDKIISNVPADSLIRTERPPNKEIVRYFIRHNALRAGTGENAPWVVEDELVKKYSLPSKFSDFLLDPYKYMTLNPSTKRKNTGSPDRKPSKKSKTDNSSLSSPLNPKLWCHVHLKKSLSGSPLKVKNSKNSKSPEEHLEEMMKMMSPNKLHTNFHIPKKGPPAKKPGKHSDKPLKAKGRSKGILNGQKSTGNSKSPKKGLKTPKTKMKQMTLLDMAKGTQKMTRAPRNSGGTPRTSSKPHKHLPPAALHLIAYYKENKDREDKRSALSCVISKTARLLSSEDRARLPEELRSLVQKRYELLEHKKRWASMSEEQRKEYLKKKREELKKKLKEKAKERREKEMLERLEKQKRYEDQELTGKNLPAFRLVDTPEGLPNTLFGDVAMVVEFLSCYSGLLLPDAQYPITAVSLMEALSADKGGFLYLNRVLVILLQTLLQDEIAEDYGELGMKLSEIPLTLHSVSELVRLCLRRSDVQEESEGSDTDDNKDSAAFEDNEVQDEFLEKLETSEFFELTSEEKLQILTALCHRILMTYSVQDHMETRQQMSAELWKERLAVLKEENDKKRAEKQKRKEMEAKNKENGKVENGLGKTDRKKEIVKFEPQVDTEAEDMISAVKSRRLLAIQAKKEREIQEREMKVKLERQAEEERIRKHKAAAEKAFQEGIAKAKLVMRRTPIGTDRNHNRYWLFSDEVPGLFIEKGWVHDSIDYRFNHHCKDHTVSGDEDYCPRSKKANLGKNASMNTQHGTATEVAVETTTPKQGQNLWFLCDSQKELDELLNCLHPQGIRESQLKERLEKRYQDIIHSIHLARKPNLGLKSCDGNQELLNFLRSDLIEVATRLQKGGLGYVEETSEFEARVISLEKLKDFGECVIALQASVIKKFLQGFMAPKQKRRKLQSEDSAKTEEVDEEKKMVEEAKVASALEKWKTAIREAQTFSRMHVLLGMLDACIKWDMSAENARCKVCRKKGEDDKLILCDECNKAFHLFCLRPALYEVPDGEWQCPACQPATARRNSRGRNYTEESASEDSEDDESDEEEEEEEEEEEEEDYEVAGLRLRPRKTIRGKHSVIPPAARSGRRPGKKPHSTRRSQPKAPPVDDAEVDELVLQTKRSSRRQSLELQKCEEILHKIVKYRFSWPFREPVTRDEAEDYYDVITHPMDFQTVQNKCSCGSYRSVQEFLTDMKQVFTNAEVYNCRGSHVLSCMVKTEQCLVALLHKHLPGHPYVRRKRKKFPDRLAEDEGDSEPEAVGQSRGRRQKK",0.6821,-0.1661
"sp¦Q86Y56¦DAAF5_HUMAN (protein, UniProt Q86Y56 2-855, looked up) Dynein axonemal assembly …: AALGVAEAVAAPHPAEGAETAEAVELSRALSRLLPGLEADSKPGRRRALEALRRALEEPGPAADPTAFQGPWARLLLPRLLRCLSDPAEGCRALAVHLLDLGLRRAARPRDALPRLLPALAARLAGPVPARRPPEACEELRLALVQLLGLAVDLCGAALAPHLDDALRALRCSLLDPFAAVRRESCSCAAALAQATPDHFHMQSESLIGPLMQTISHQHWKVRVAAIEATGAVIHFGNGKSVDDVLSHFAQRLFDDVPQVRRAVASVVGGWLLCLRDRYSFFHKLIPLLLSSLNDEVPEVRQLAASLWEDVGLQWQKENEEDLKDKLDFAPPTPPHYPPHERRPVLGCRELVFRNLSKILPALCHDITDWVVGTRVKSAQLLPVLLLHAEDHATQHLEVVLRTLFQACTDEEAAVVQSCTRSAELVGTFVSPEVFLKLILSTLKKTPSASGLLVLASAMRGCPREALQPHLAAIATELAQAHICQASENDLYLERLLLCVQALVSVCHEDCGVASLQLLDVLLTIVALAGATGLRDKAQETMDSLAMVEGVSSCQDLYRKHIGPLLERVTASHLDWTAHSPELLQFSVIVAQSGPALGEALPHVVPTLRACLQPSQDPQMRLKLFSILSTVLLRATDTINSQGQFPSYLETVTKDILAPNLQWHAGRTAAAIRTAAVSCLWALTSSEVLSAEQIRDVQETLMPQVLTTLEEDSKMTRLISCRIINTFLKTSGGMTDPEKLIRIYPELLKRLDDVSNDVRMAAASTLVTWLQCVKGANAKSYYQSSVQYLYRELLVHLDDPERAIQDAILEVLKEGSGLFPDLLVRETEAVIHKHRSATYCEQLLQHVQAVPATQ",0.3018,-0.5202
"sp¦Q6IBS0¦TWF2_HUMAN (protein, UniProt Q6IBS0 2-349, looked up) Twinfilin-2: AHQTGIHATEELKEFFAKARAGSVRLIKVVIEDEQLVLGASQEPVGRWDQDYDRAVLPLLDAQQPCYLLYRLDSQNAQGFEWLFLAWSPDNSPVRLKMLYAATRATVKKEFGGGHIKDELFGTVKDDLSFAGYQKHLSSCAAPAPLTSAERELQQIRINEVKTEISVESKHQTLQGLAFPLQPEAQRALQQLKQKMVNYIQMKLDLERETIELVHTEPTDVAQLPSRVPRDAARYHFFLYKHTHEGDPLESVVFIYSMPGYKCSIKERMLYSSCKSRLLDSVEQDFHLEIAKKIEIGDGAELTAEFLYDEVHPKQHAFKQAFAKPKGPGGKRGHKRLIRGPGENGDDS",0.6717,-0.1728
"sp¦P13995¦MTDC_HUMAN (protein, UniProt P13995 36-350, looked up) Bifunctional …: EAVVISGRKLAQQIKQEVRQEVEEWVASGNKRPHLSVILVGENPASHSYVLNKTRAAAVVGINSETIMKPASISEEELLNLINKLNNDDNVDGLLVQLPLPEHIDERRICNAVSPDKDVDGFHVINVGRMCLDQYSMLPATPWGVWEIIKRTGIPTLGKNVVVAGRSKNVGMPIAMLLHTDGAHERPGGDATVTISHRYTPKEQLKKHTILADIVISAAGIPNLITADMIKEGAAVIDVGINRVHDPVTAKPKLVGDVDFEGVRQKAGYITPVPGGVGPMTVAMLMKNTIIAAKKVLRLEEREVLKSKELGVATN",0.682,-0.1662
"sp¦Q13451¦FKBP5_HUMAN (protein, UniProt Q13451 1-457, looked up) Peptidyl-prolyl cis-trans …: MTTDEGAKNNEESPTATVAEQGEDITSKKDRGVLKIVKRVGNGEETPMIGDKVYVHYKGKLSNGKKFDSSHDRNEPFVFSLGKGQVIKAWDIGVATMKKGEICHLLCKPEYAYGSAGSLPKIPSNATLFFEIELLDFKGEDLFEDGGIIRRTKRKGEGYSNPNEGATVEIHLEGRCGGRMFDCRDVAFTVGEGEDHDIPIGIDKALEKMQREEQCILYLGPRYGFGEAGKPKFGIEPNAELIYEVTLKSFEKAKESWEMDTKEKLEQAAIVKEKGTVYFKGGKYMQAVIQYGKIVSWLEMEYGLSEKESKASESFLLAAFLNLAMCYLKLREYTKAVECCDKALGLDSANEKGLYRRGEAQLLMNEFESAKGDFEKVLEVNPQNKAARLQISMCQKKAKEHNERDRRIYANMFKKFAEQDAKEEANKAMGKKTSEGVTNEKGTDSQAMEEEKPEGHV",0.6681,-0.1751
"sp¦P34897¦GLYM_HUMAN (protein, UniProt P34897 30-504, looked up) Serine …: NAAQTQTGEANRGWTGQESLSDSDPEMWELLQREKDRQCRGLELIASENFCSRAALEALGSCLNNKYSEGYPGKRYYGGAEVVDEIELLCQRRALEAFDLDPAQWGVNVQPYSGSPANLAVYTALLQPHDRIMGLDLPDGGHLTHGYMSDVKRISATSIFFESMPYKLNPKTGLIDYNQLALTARLFRPRLIIAGTSAYARLIDYARMREVCDEVKAHLLADMAHISGLVAAKVIPSPFKHADIVTTTTHKTLRGARSGLIFYRKGVKAVDPKTGREIPYTFEDRINFAVFPSLQGGPHNHAIAAVAVALKQACTPMFREYSLQVLKNARAMADALLERGYSLVSGGTDNHLVLVDLRPKGLDGARAERVLELVSITANKNTCPGDRSAITPGGLRLGAPALTSRQFREDDFRRVVDFIDEGVNIGLEVKSKTAKLQDFKSFLLKDSETSQRLANLRQRVEQFARAFPMPGFDEH",0.6722,-0.1725
"sp¦Q04837¦SSBP_HUMAN (protein, UniProt Q04837 17-148, looked up) Single-stranded DNA-binding …: ESETTTSLVLERSLNRVHLLGRVGQDPVLRQVEGKNPVTIFSLATNEMWRSGDSEVYQLGDVSQKTTWHRISVFRPGLRDVAYQYVKKGSRIYLEGKIDYGEYMDKNNVRRQATTIIADNIIFLSDQTKEKE",0.6781,-0.1687
"sp¦B0I1T2¦MYO1G_HUMAN (protein, UniProt B0I1T2 1-1018, looked up) Unconventional myosin-Ig: MEDEEGPEYGKPDFVLLDQVTMEDFMRNLQLRFEKGRIYTYIGEVLVSVNPYQELPLYGPEAIARYQGRELYERPPHLYAVANAAYKAMKHRSRDTCIVISGESGAGKTEASKHIMQYIAAVTNPSQRAEVERVKDVLLKSTCVLEAFGNARTNRNHNSSRFGKYMDINFDFKGDPIGGHIHSYLLEKSRVLKQHVGERNFHAFYQLLRGSEDKQLHELHLERNPAVYNFTHQGAGLNMTVHSALDSDEQSHQAVTEAMRVIGFSPEEVESVHRILAAILHLGNIEFVETEEGGLQKEGLAVAEEALVDHVAELTATPRDLVLRSLLARTVASGGRELIEKGHTAAEASYARDACAKAVYQRLFEWVVNRINSVMEPRGRDPRRDGKDTVIGVLDIYGFEVFPVNSFEQFCINYCNEKLQQLFIQLILKQEQEEYEREGITWQSVEYFNNATIVDLVERPHRGILAVLDEACSSAGTITDRIFLQTLDMHHRHHLHYTSRQLCPTDKTMEFGRDFRIKHYAGDVTYSVEGFIDKNRDFLFQDFKRLLYNSTDPTLRAMWPDGQQDITEVTKRPLTAGTLFKNSMVALVENLASKEPFYVRCIKPNEDKVAGKLDENHCRHQVAYLGLLENVRVRRAGFASRQPYSRFLLRYKMTCEYTWPNHLLGSDKAAVSALLEQHGLQGDVAFGHSKLFIRSPRTLVTLEQSRARLIPIIVLLLQKAWRGTLARWRCRRLRAIYTIMRWFRRHKVRAHLAELQRRFQAARQPPLYGRDLVWPLPPAVLQPFQDTCHALFCRWRARQLVKNIPPSDMPQIKAKVAAMGALQGLRQDWGCRRAWARDYLSSATDNPTASSLFAQRLKTLQDKDGFGAVLFSSHVRKVNRFHKIRNRALLLTDQHLYKLDPDRQYRVMRAVPLEAVTGLSVTSGGDQLVVLHARGQDDLVVCLHRSRPPLDNRVGELVGVLAAHCQGEGRTLEVRVSDCIPLSHRGVRRLISVEPRPEQPEPDFRCARGSFTLLWPSR",0.6785,-0.1685
